In paper PMC9131517, “Enzymatic N-Allylation of Primary and Secondary Amines Using Renewable Cinnamic Acids Enabled by Bacterial Reductive Aminases” (ACS Sustainable Chemistry & Engineering, 2022):

Key:
Assay in all cases: initial rate of NADPH consumption
Format in all cases: biochemical, compost metagenome
Conditions in all cases: 80 mM cyclopropylamine, 0.3 mM NADPH, pH 7.5 (100 mM NaPi), 30 °C
[1] = substrate: O=C/C=C/c1ccccc1
Description: (§1) initial rate of NADPH consumption on BacRedAm

[2] = substrate: O=CCCc1ccccc1
Description: as §1

[3] = substrate: O=C1CCCCC1
Description: as §1

B1: BacRedAm (compost metagenome) (protein)
chain: MREPIVSAHTERAVESRGADRGSAVTVIGLGSMGSALAGAVLEAGYPTTVWNRTAGKAEPLVRRGAARAATVAEAVSASPTVIACVLDYRALREILSTAGDALAGRTVVNLTNGTPTEARETAAWVEGHGARYLDGGIMAVPEMIGGAESLVLYSGSAEAFETVEPVLRRFGSAMYLGADPGLASLHDLALLAGMYGLFAGFLHAVALVGTEGVRATEFTSSLLIPWLQAMTATLPEAAAQIDAGDYAATGSRLDMQAVALANIVEASRSQGIRPDLMLPIQALVERRVAKGGGGEDIAAVVEEVRG
notes: recombinant, expressed in E. coli BL21, purified
Km [1]: 2580 µM
kcat [1]: 0.11 s⁻¹
Km [2]: 2980 µM
kcat [2]: 1.45 s⁻¹
Km [3]: 13320 µM
kcat [3]: 5.12 s⁻¹
